Results reported in the supplement of paper PMC9233669.
Variants at the floor of the assay were thinned out.

Columns and labels:
biotinyl-Leu-oxazolone = assay: self-aminoacylation, catalytic enhancement (BLO) (fold over background); higher = more active; k-Seq, kA / k0A0; sequences stand for … in GGGAAUGGAUCCACAUCUACGAAUUC…UUCACUGCAGACUUGACGAAGCUG
How it was run: (§1)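 Working in 50 μL HEPES/NaCl/KCl/MgCl2/CaCl2 buffer with 5% acetonitrile at pH 6.9–7.0, mutagenized RNA pools (0.43 μM; 21-nt variable region) were reacted with 2–1250 μM of each biotinyl-aminoacyl-oxazolone for 90 minutes at room temperature. Streptavidin capture followed, with quantification by triplicate qPCR and Illumina sequencing. Catalytic enhancement is reported as median kA over the uncatalyzed rate, the low-activity peak of a bimodal Gaussian fit to the data.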

biotinyl-Ile-oxazolone = assay: self-aminoacylation, catalytic enhancement (BIO) (fold over background); higher = more active; k-Seq, kA / k0A0; sequences stand for … in GGGAAUGGAUCCACAUCUACGAAUUC…UUCACUGCAGACUUGACGAAGCUG
How it was run: as §1

biotinyl-Val-oxazolone = assay: self-aminoacylation, catalytic enhancement (BVO) (fold over background); higher = more active; k-Seq, kA / k0A0; sequences stand for … in GGGAAUGGAUCCACAUCUACGAAUUC…UUCACUGCAGACUUGACGAAGCUG
How it was run: as §1

biotinyl-Met-oxazolone = assay: self-aminoacylation, catalytic enhancement (BMO) (fold over background); higher = more active; k-Seq, kA / k0A0; sequences stand for … in GGGAAUGGAUCCACAUCUACGAAUUC…UUCACUGCAGACUUGACGAAGCUG
How it was run: as §1

biotinyl-Trp-oxazolone = assay: self-aminoacylation, catalytic enhancement (BWO) (fold over background); higher = more active; k-Seq, kA / k0A0; sequences stand for … in GGGAAUGGAUCCACAUCUACGAAUUC…UUCACUGCAGACUUGACGAAGCUG
How it was run: as §1

biotinyl-Phe-oxazolone = assay: self-aminoacylation, catalytic enhancement (BFO) (fold over background); higher = more active; k-Seq, kA / k0A0; sequences stand for … in GGGAAUGGAUCCACAUCUACGAAUUC…UUCACUGCAGACUUGACGAAGCUG
How it was run: as §1

Sequence | self-aminoacylation (biotinyl-Leu-oxazolone) | self-aminoacylation (biotinyl-Ile-oxazolone) | self-aminoacylation (biotinyl-Val-oxazolone) | self-aminoacylation (biotinyl-Met-oxazolone) | self-aminoacylation (biotinyl-Trp-oxazolone) | self-aminoacylation (biotinyl-Phe-oxazolone)
CUACUUCGAACAAUCGGUCCG [Fam1A.1 aminoacylation ribozyme variant] | 0.865 | 0.879 | 0.738 | 1.09 | 0.959 | 2.05
CUACUUCAAACAAUCGGUGAG [Fam1A.1 aminoacylation ribozyme variant] | 1.05 | 0.901 | 1.03 | 1.19 | 0.907 | 1.5
AUUACCCUGGUCAGCGAGUGU [Fam2.1 aminoacylation ribozyme variant] | 3.85 | 2.49 | 2.41 | 3.7 | 4.47 | 15.4
AUUACCCGGGUCAUCGAGUGA [Fam2.1 aminoacylation ribozyme variant] | 7.1 | 3.57 | 3.85 | 6.91 | 7.86 | 44.9
CCACACUUCAAACAAUCGGUC [Fam1B.1 aminoacylation ribozyme variant] | 2.32 | 1.38 | 1.53 | 1.46 | 47 | 102
AAGUUUGCUAAUAGUCGCCCG [Fam3.1 aminoacylation ribozyme variant] | 3.87 | 3.76 | 2.69 | 2.98 | 3.76 | 9.34
CUACUUCAUACAUUCGGUCUG [Fam1A.1 aminoacylation ribozyme variant] | 1.04 | 0.955 | 0.965 | 0.894 | 0.96 | 1.05
CUACUGCAAACAACCGGUCUG [Fam1A.1 aminoacylation ribozyme variant] | 0.953 | 1.02 | 0.836 | 0.762 | 0.804 | 2.5
AUUCACCUAGCUAAUCGGGUG [Fam2.2 aminoacylation ribozyme variant] | 2.05 | 1.6 | 1.62 | 1.93 | 1.85 | 4.49
AUUACUCUGGUGAUCGAGUGA [Fam2.1 aminoacylation ribozyme variant] | 5.72 | 2.92 | 2.57 | 5.34 | 6.39 | 21.8
CGACACUUCAUGCAAUCGGUC [Fam1B.1 aminoacylation ribozyme variant] | 0.932 | 1.05 | 1.17 | 0.971 | 0.973 | 1.34
UCCCACUUCAAGCAAUCGGUC [Fam1B.1 aminoacylation ribozyme variant] | 1.59 | 1.28 | 1.73 | 1.46 | 22.3 | 37
CAACACUUCAAGCAAUCAGUC [Fam1B.1 aminoacylation ribozyme variant] | 0.923 | 0.858 | 0.772 | 0.716 | 4.78 | 14.5
